Kd, koff and kon data for 2 molecules are collected here from article PMC9186069, “Borrelia miyamotoi FbpA and FbpB Are Immunomodulatory Outer Surface Lipoproteins With Distinct Structures and Functions” (Frontiers in Immunology, 2022).

Holding throughout (details): both partners purified
One assay has as its target T1, C1r-CCP2-SP (human).
T1 construct: source: recombinant (pT7HMT-C1r-CCP2-SP), purified by previously published protocols with a final gel filtration step
In words: SPR; FbpA-C, FbpB-C or FbpA DA-C immobilised by amine coupling; C1r-CCP2-SP injected, twofold dilution series 0-100 nM, multi-cycle; Biacore T200, 25°C, 30 μL/min; kinetic fits. (Surface plasmon resonance follows binding to a sensor surface in real time, without labels.)

In a further assay the target is active C1r (human, UniProt P00736, activated two-chain form, cleaved between 463 and 464 (cleavage limits from UniProt chain features), heavy and light chains disulfide-linked; plasma-purified glycoprotein; native C1r forms a Ca-depend). Put plainly: SPR; FbpA-C or FbpB-C immobilised by amine coupling; full-length C1r zymogen or active C1r injected, fivefold dilution series 0-100 nM, single cycle, final dissociation 1 hour; Biacore T200, 25°C; kinetic fits.

The next assay addresses T2, C1r zymogen (human, UniProt P00736 18-705).
T2 construct: also called zymogen form of full-length purified C1r; zymogen C1r; source: bought: Complement Technology, Inc. (purified)
T2 sequence: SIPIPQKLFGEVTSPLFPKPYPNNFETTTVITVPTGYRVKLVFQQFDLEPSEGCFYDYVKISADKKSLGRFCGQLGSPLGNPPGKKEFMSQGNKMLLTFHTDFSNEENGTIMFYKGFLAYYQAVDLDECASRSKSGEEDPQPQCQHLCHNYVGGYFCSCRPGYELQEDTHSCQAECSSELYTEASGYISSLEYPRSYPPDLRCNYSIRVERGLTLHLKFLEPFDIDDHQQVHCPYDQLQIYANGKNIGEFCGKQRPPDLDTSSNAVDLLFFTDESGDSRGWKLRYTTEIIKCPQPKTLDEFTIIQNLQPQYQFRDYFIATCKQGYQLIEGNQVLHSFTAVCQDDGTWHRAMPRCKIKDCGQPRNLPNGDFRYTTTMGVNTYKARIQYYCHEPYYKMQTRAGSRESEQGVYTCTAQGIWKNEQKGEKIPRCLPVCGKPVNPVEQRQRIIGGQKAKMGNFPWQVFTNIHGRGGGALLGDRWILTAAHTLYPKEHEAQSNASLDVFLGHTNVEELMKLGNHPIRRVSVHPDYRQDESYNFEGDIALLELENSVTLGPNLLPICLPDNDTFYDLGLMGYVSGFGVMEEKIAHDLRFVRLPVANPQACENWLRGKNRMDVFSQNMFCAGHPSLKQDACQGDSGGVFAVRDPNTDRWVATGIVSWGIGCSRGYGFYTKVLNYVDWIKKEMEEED
The assay is described as above.

T1 sequence (A0A0U2RP97 entry or part of it): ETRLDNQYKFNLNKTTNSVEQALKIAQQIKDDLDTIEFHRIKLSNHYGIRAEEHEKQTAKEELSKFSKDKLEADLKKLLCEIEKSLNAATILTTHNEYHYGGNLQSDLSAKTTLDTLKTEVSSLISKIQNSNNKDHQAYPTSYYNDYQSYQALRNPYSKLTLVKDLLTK

B1: FbpB-C (domain or fragment)
chain: DNQYKFKLKNITDSVEQALKIAKQIKDDLDIIEFHRIKLSNHYGIRAEEHEKQTAREELSKFSKDKLEADLKKLLSEIEKSLNAATILITYNDYGGNLQSDLSAKTTLEALKTEVSSLITKIQDFNNKDHQAYPTSYYNDYQTYQALRNPYSKLTLVKDLLTRTGIVAR
Usually Kd stands for the equilibrium constant for the complex coming apart. Broadly, the koff is the first-order rate constant of dissociation. Usually kon stands for a measure of how fast the partners come together. Read a low kon as slow association. In the assay with C1r-CCP2-SP, B1 showed a Kd of 1.4 nM, a koff of 0.00055 s⁻¹ and a kon of 390000 M⁻¹ s⁻¹. In the assay with active C1r, this molecule returned a Kd of 1.1 nM, a koff of 7.6e-05 s⁻¹ and a kon of 68000 M⁻¹ s⁻¹.

B2: FbpA-C (domain or fragment)
chain: GSTGSDNRYKSYLEGVRYNVSAAIGSIDKIYNNYKLFEEQRTKMYSTRLDTVTKDQAKKEAEKFTKEELEKDLKELLNYIQVSAKTATNFVYQKEQYAKQRLDKLETEVKTLISEVQGQSHPYEAYKAIVRSKFLQMKDSLEVVKGVIDRDGPWY
notes: Made from pT7HMT-FbpA-C; also called FbpA(222-371); C-terminal truncation construct of B. miyamotoi FbpA; source: E. coli BL21 (DE3), purified (Ni column, TEV, gel filtration)
In the assay with active C1r, B2 had a Kd of 0.39 nM, a koff of 2.7e-05 s⁻¹ and a kon of 68000 M⁻¹ s⁻¹. In the assay with C1r zymogen, this molecule yielded a Kd of 0.85 nM, a koff of 1.9e-05 s⁻¹ and a kon of 22000 M⁻¹ s⁻¹.
